Assay results as given in article PMC8413462.

Biological target: T1, Snu13 (Saccharomyces cerevisiae) (UniProt P39990)
T1 sequence: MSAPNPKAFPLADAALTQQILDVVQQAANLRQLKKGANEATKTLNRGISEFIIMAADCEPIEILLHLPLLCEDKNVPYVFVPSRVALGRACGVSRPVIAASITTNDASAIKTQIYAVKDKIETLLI
Assay: EMSA
Conditions: EMSA: annealed in 10 mM Tris-HCl, 100 mM NaCl, 1 mM EDTA, pH 7.5; 4 C, 10% native PAGE; 10 pmol Cy5-RNA (~2 uM) or 0.5 nmol unlabeled RNA. RNP: 20 mM Na …

Substance: snR41-kl1
- Kd: > 10 µM
